Experimental data as given in US20160010147, “ENZYME STALLING METHOD” (OXFORD NANOPORE TECHNOLOGIES LIMITED, published 2016).

Legend:
[1] = biological target: T1, T4 Dda-E94C/A360C helicase (Enterobacteria phage T4, UniProt P32270 SEQ:1-439, E94C/A360C, then (ΔM1)G1G2); assay: EMSA; one enzyme bound only at 312.5-5000 nM; 1 uM DNA; 25 mM phosphate pH 8.0, 151.5 mM KCl; settings: 5' ssDNA overhang with duplex
T1 sequence: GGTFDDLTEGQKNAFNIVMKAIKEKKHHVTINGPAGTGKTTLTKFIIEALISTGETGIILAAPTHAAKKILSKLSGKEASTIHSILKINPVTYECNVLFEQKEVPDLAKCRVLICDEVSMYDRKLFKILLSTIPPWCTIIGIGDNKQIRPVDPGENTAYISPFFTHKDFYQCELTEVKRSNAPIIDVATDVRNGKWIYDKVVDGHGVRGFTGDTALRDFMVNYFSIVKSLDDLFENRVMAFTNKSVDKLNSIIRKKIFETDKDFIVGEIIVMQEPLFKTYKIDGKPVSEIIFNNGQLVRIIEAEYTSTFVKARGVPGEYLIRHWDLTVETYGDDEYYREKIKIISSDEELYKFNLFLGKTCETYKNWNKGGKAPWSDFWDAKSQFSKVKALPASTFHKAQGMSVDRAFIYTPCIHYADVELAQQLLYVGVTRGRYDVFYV
Procedure: (§1) DNA constructs (1 μM or 100 nM final concentration) detailed below in Table 12 were incubated in appropriate buffer with serially diluted T4 Dda-E94C/A360C. The samples were then loaded on 4-20% TBE gels and run at 160 V for 90 minutes. The gels containing entries 1-6 were then stained using SYBR. […] The length of the region labelled 1 is varied from 2 to 50 to optimise conditions so that it is possible to control the number of T4 Dda-E94C/A360C helicases which can bind to the DNA,

[2] = biological target: T1, T4 Dda-E94C/A360C helicase; assay: EMSA; up to five helicases bound; ATP/MgCl2 gives strand displacement; settings: 50 nt ssDNA overhang with duplex
Procedure: (§2) The annealed DNA complexes (sequences tested are shown in table 11 below) were mixed in a ratio of (1:1, v/v) with T4 Dda-E94C/A360C in 25 mM phosphate pH 8.0, 200 mM KCl giving final concentrations of T4 Dda-E94C/A360C (2000 nM) and DNA (100 nM). The helicase was allowed to bind to the DNA for 2 hours at ambient temperature. Capture strand (SEQ ID NO: 37, 20 μM) was added to each sample to bind any unbound enzyme and the samples incubated at ambient temperature for 30 mins. Buffer was added to the samples (DNA construct from table 11=50 nM, capture DNA (SEQ ID NO: 37)=10 μM and T4 Dda-E94C/A360C=1000 nM) and they were incubated at ambient temperature for one hour (either Buffer 1=25 mM phosphate pH 8.0, 200 mM KCl, 20 mM MgCl2, 10 mM ATP or Buffer 2=25 mM phosphate pH 8.0, 1 M KCl, 25 mM potassium ferricyanide(III), 75 mM potassium ferrocyanide, 20 mM MgCl2, 10 mM ATP). Loading buffer (25 mM Phosphate pH8.0, 151.5 mM KCl, 25% Glycerol, 125 mM EDTA) is added to each sample to quench the helicase activity. The samples were loaded onto 4-20% TBE gel and the gel run at 160 V for 1.5 hours. The Gel was then stained with SYBR gold in order to observe the DNA bands.

[3] = biological target: T1, T4 Dda-E94C/A360C helicase; assay: EMSA; unbound DNA only up to 3750 nM; 1 uM DNA; settings: 5' ssDNA overhang with duplex
Procedure: as §1

[4] = biological target: T1, T4 Dda-E94C/A360C helicase; assay: EMSA; up to two enzymes bound; one faint at 169 nM; 100 nM DNA; settings: 5' ssDNA overhang with duplex
Procedure: as §1

[5] = biological target: T1, T4 Dda-E94C/A360C helicase; assay: EMSA; one helicase stalled in at least one buffer with ATP/MgCl2; settings: 50 nt ssDNA overhang with duplex
Procedure: as §2

[6] = biological target: T1, T4 Dda-E94C/A360C helicase; assay: EMSA; up to two enzymes bound; unbound only at 169 nM; 100 nM DNA; settings: 5' ssDNA overhang with duplex
Procedure: as §1

[7] = biological target: T1, T4 Dda-E94C/A360C helicase; assay: EMSA; up to five helicases bound; one, faintly two, stalled after ATP/MgCl2; settings: 50 nt ssDNA overhang with duplex
Procedure: as §2

[8] = biological target: T1, T4 Dda-E94C/A360C helicase; assay: EMSA; up to five helicases bound; one helicase stalled after ATP/MgCl2; settings: 50 nt ssDNA overhang with duplex
Procedure: as §2

[9] = biological target: T1, T4 Dda-E94C/A360C helicase; assay: EMSA; two enzymes bound at 625-5000 nM, one at 312.5 nM; 1 uM DNA; settings: 5' ssDNA overhang with duplex
Procedure: as §1

[10] = biological target: T1, T4 Dda-E94C/A360C helicase; assay: EMSA; up to six enzymes bound at 5000 nM; 1 uM DNA; settings: 5' ssDNA overhang with duplex
Procedure: as §1

[11] = biological target: T1, T4 Dda-E94C/A360C helicase; assay: EMSA; one helicase bound from 238 nM, two from 475 nM up to 3800 nM; 100 nM DNA; settings: two 10T ssDNA regions
Procedure: T4 Dda E94C/A360C was buffer exchanged into 25 mM phosphate pH 8.0, 151.5 mM KCl and serially diluted. The helicase and DNA were then mixed (1:1, v/v) with the DNA construct samples 9 and 10 described above (final concentration DNA=100 nM, helicase concentrations investigated=3800 nM, 1900 nM, 950 nM, 475 nM, 238 nM, 0 nM). The DNA and enzyme volumes were then incubated at ambient temperature for 1.5 hours. Dye free loading buffer (5×, 7.5 μL) was added to each sample (30 μL). Each sample (37.5 μL) was then loaded onto 4-20% TBE gel and run at 160 V for 90 minutes. The gel was then stained using SYBR.

B1: Table 12 construct 1 (10T region) (mixed)
DNA 1: TTTTTTTTTTTCGCTGCTCCACAGGTCTCAGCTTGAGCAGCGA
DNA 2: TCGCTGCTCAAGCTGAGACCTGTGGAGCAGCGA
modifications: 5 iSpC3 at 5' end; 4 iSpC3 between SEQ 37 and SEQ 36
binding result [1]: binds

B2: Table 11 construct 1 (no spacers) (mixed)
DNA 1: TTTTTTTTTTTTTTTTTTTTTTTTTTTTTTTTTTTTTTTTTTTTTTTTTTTCGCTGCTCCACAGGTCTCAGCTTGAGCAGCGA
DNA 2: B1 DNA 2
binding result [2]: binds

B3: Table 12 construct 5 (4T region) (mixed)
DNA 1: TTTTTCGCTGCTCCACAGGTCTCAGCTTGAGCAGCGA
DNA 2: B1 DNA 2
modifications: 5 iSpC3 at 5' end; 4 iSpC3 between T4 and SEQ 36
binding result [3]: no binding

B4: Table 12 construct 7 (16T region) (mixed)
DNA 1: TTTTTTTTTTTTTTTTTCGCTGCTCCACAGGTCTCAGCTTGAGCAGCGA
DNA 2: B1 DNA 2
modifications: 5 iSpC3 at 5' end; 4 iSp18 between SEQ 39 and SEQ 36
binding result [4]: binds

B5: Table 11 construct 6 (2 iSp18) (mixed)
DNA 1: B2 DNA 1
DNA 2: B1 DNA 2
modifications: 2 iSp18 between SEQ 9 and SEQ 36
binding result [5]: binds

B6: Table 11 construct 3 (8 iSpC3) (mixed)
DNA 1: B2 DNA 1
DNA 2: B1 DNA 2
modifications: 8 iSpC3 between SEQ 9 and SEQ 36
binding result [5]: binds

B7: Table 11 construct 4 (12 iSpC3) (mixed)
DNA 1: B2 DNA 1
DNA 2: B1 DNA 2
modifications: 12 iSpC3 between SEQ 9 and SEQ 36
binding result [5]: binds

B8: Table 12 construct 8 (18T region) (mixed)
DNA 1: TTTTTTTTTTTTTTTTTTTCGCTGCTCCACAGGTCTCAGCTTGAGCAGCGA
DNA 2: B1 DNA 2
modifications: 5 iSpC3 at 5' end; 4 iSp18 between SEQ 40 and SEQ 36
binding result [6]: binds

B9: Table 11 construct 5 (1 iSp18) (mixed)
DNA 1: B2 DNA 1
DNA 2: B1 DNA 2
modifications: 1 iSp18 between SEQ 9 and SEQ 36
binding result [5]: binds

B10: Table 12 construct 4 (2T region) (mixed)
DNA 1: TTTCGCTGCTCCACAGGTCTCAGCTTGAGCAGCGA
DNA 2: B1 DNA 2
modifications: 5 iSpC3 at 5' end; 4 iSpC3 between TT and SEQ 36
binding result [3]: no binding

B11: Table 11 construct 8 (4 iSp18) (mixed)
DNA 1: B2 DNA 1
DNA 2: B1 DNA 2
modifications: 4 iSp18 between SEQ 9 and SEQ 36
binding result [7]: binds

B12: Table 11 construct 7 (3 iSp18) (mixed)
DNA 1: B2 DNA 1
DNA 2: B1 DNA 2
modifications: 3 iSp18 between SEQ 9 and SEQ 36
binding result [8]: binds

B13: Table 12 construct 2 (20T region) (mixed)
DNA 1: TTTTTTTTTTTTTTTTTTTTTCGCTGCTCCACAGGTCTCAGCTTGAGCAGCGA
DNA 2: B1 DNA 2
modifications: 5 iSpC3 at 5' end; 4 iSpC3 between SEQ 38 and SEQ 36
binding result [9]: binds

B14: Table 11 construct 9 (5 iSp18) (mixed)
DNA 1: B2 DNA 1
DNA 2: B1 DNA 2
modifications: 5 iSp18 between SEQ 9 and SEQ 36
binding result [7]: binds

B15: Table 11 construct 2 (4 iSpC3) (mixed)
DNA 1: B2 DNA 1
DNA 2: B1 DNA 2
modifications: 4 iSpC3 between SEQ 9 and SEQ 36
binding result [5]: binds

B16: Table 12 construct 3 (50T region) (mixed)
DNA 1: B2 DNA 1
DNA 2: B1 DNA 2
modifications: 5 iSpC3 at 5' end; 4 iSpC3 between SEQ 9 and SEQ 36
binding result [10]: binds

B17: Table 16 construct 9 (non-forked) (mixed)
DNA 1: TTTTTTTTTTTTTTTTTTTTGGTTGTTTCTGTTGGTGCTGATATTGCGCCATCAGATTGTGTTTGTTAGTCGCT
DNA 2: GCAATATCAGCACCAACAGAAACAACC
DNA 3: AGCGACTAACAAACACAATCTGATGGC
modifications: 25 SpC3 at 5' end; 2 iSp18 after each SEQ 37; 4 nitroindoles between SEQ 10 and SEQ 41
binding result ([11]; two duplexes): binds

B18: Table 16 construct 10 (forked) (mixed)
DNA 1: B17 DNA 1
DNA 2: GCAATATCAGCACCAACAGAAACAACCT
DNA 3: AGCGACTAACAAACACAATCTGATGGC
modifications: 25 SpC3 at 5' end; 2 iSp18 after each SEQ 37; 4 nitroindoles between SEQ 10 and SEQ 41; 6 iSp18 at 3' end of SEQ 12
binding result ([11]; forked duplex): binds
